Data reported in PMC7666136.

Tests used:
[1] = target: T1, eGFP-53BP1 (wild-type TP53-binding protein 1 tagged with enhanced green fluorescent protein), Q12888; test: Number and Brightness (NB) analysis of fluorescence fluctuation spectroscopy; frame scans in nuclei of live DIvA cells expressing eGFP-tagged 53BP1 constructs, 37 °C, brightness windows calibrated on free eGFP (B monomer 1.15, dimer 1.30, oligomer >1.60); before and 30-60 min after 4OHT induction of DSBs; also after knockdown of endogenous 53BP1; conditions: remark: other sources report otherwise
T1 chain: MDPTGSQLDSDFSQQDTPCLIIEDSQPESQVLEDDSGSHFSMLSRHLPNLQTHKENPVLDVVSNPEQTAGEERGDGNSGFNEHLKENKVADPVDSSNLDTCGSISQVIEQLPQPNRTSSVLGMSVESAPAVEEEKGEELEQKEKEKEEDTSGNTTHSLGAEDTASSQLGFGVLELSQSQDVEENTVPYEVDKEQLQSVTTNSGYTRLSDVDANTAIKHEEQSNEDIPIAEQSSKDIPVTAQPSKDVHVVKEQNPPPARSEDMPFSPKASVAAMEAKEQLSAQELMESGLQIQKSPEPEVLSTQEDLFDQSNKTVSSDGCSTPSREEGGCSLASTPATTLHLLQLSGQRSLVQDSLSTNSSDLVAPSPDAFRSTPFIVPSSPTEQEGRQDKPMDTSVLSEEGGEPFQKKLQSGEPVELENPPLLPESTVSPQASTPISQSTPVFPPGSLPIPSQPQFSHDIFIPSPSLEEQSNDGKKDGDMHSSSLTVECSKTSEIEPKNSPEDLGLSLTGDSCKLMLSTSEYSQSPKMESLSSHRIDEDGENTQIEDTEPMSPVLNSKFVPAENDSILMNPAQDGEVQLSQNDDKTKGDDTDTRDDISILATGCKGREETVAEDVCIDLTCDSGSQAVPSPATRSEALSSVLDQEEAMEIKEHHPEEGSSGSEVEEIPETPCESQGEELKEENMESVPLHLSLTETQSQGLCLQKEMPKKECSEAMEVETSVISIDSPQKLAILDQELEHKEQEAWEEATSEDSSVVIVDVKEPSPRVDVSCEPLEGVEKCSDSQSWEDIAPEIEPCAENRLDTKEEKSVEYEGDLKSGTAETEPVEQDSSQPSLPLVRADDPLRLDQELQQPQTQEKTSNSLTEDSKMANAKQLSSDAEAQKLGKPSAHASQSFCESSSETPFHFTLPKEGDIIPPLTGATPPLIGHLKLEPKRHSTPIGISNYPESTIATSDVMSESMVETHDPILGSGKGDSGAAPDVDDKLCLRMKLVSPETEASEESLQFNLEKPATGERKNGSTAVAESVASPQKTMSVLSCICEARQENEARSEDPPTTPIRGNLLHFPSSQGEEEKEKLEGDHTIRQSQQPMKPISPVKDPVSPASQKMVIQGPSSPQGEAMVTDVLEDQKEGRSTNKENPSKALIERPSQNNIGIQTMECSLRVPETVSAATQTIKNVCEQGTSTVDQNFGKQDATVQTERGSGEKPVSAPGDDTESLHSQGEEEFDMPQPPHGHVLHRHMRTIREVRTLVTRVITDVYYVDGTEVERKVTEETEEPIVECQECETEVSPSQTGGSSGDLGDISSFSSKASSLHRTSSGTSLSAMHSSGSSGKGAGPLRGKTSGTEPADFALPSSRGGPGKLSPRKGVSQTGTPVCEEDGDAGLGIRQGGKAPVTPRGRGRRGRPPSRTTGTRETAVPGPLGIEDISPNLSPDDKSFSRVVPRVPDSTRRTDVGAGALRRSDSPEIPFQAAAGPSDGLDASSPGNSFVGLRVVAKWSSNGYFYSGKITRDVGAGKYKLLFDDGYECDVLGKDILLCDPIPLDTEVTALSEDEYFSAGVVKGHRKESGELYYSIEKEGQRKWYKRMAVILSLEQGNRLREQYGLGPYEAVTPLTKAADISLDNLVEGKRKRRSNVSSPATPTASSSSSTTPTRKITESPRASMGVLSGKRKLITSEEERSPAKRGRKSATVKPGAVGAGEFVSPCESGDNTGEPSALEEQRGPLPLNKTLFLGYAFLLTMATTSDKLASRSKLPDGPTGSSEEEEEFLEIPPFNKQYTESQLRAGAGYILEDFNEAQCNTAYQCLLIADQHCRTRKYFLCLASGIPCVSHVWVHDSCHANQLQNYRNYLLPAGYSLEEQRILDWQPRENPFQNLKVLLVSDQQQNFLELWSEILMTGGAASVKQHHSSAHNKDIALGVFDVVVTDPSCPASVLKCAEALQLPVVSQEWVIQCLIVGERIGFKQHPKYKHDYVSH

[2] = target: T1, eGFP-53BP1 (wild-type TP53-binding …); test: cross-pair correlation function (cross-pCF) analysis, two-colour fluorescence cross-correlation; two-channel line scans in live DIvA cells co-transfected with eGFP- and mKate2-tagged copies of the same 53BP1 construct, treated with 4OHT for 60 min; dimer fraction from cross pCF0 against pCF0, corrected for spectral bleed through; conditions: remark: other sources report otherwise

B1: eGFP-53BP1 (wild-type TP53-binding protein 1 tagged with enhanced green fluorescent protein), Q12888 1-1972 (natural protein)
chain: T1 chain
fraction of dimer (NB, percent of pixels) [1]: 26% | fraction of oligomer (NB, percent of pixels) [1]: 2% | stoichiometry N [1]: 2 | fraction of 53BP1 dimer (cross pCF0 against pCF0) [2]: 31%
